Patent US20030203869A1

B1: HIV Env 49 (HIV env 49-58) CTL epitope peptide … (peptide)
peptide: TVYYGVPVWK
modifications: not checked
B2: HBV Env 335 (HBV env 335-343) CTL epitope peptide … (peptide)
peptide: WLSLLVPFV
modifications: not checked

Tests used:
[1] = target: purified HLA-A11 molecules (human); test: inhibition of binding of a labeled reference peptide to purified HLA-A11
[2] = target: purified HLA-A2.1 molecules (human); test: inhibition of binding of a labeled reference peptide to purified HLA-A2.1; details: remark: other sources report otherwise

Binder | IC50 [1] [nM] | IC50 [2] [nM]
B1 | 4 | 
B2 |  | 5
